Tests used:
Assay in all cases: far-Western, overlay or dot blot; western blot: non-reduced lysate of P. falciparum NF54 iGP2 stage V gametocytes separated by SDS-PAGE, probed with 0.1 µg/mL antibodies for 1 h at RT; HRP anti-human IgG
Details in all cases: one partner purified
[1] = molecular target: D3-Fc (anti-Pfs48/45 nanobody D3 fused to hinge and Fc of human IgG1) (alpaca)
[2] = molecular target: D4-Fc (anti-Pfs48/45 nanobody D4 fused to hinge and Fc of human IgG1) (alpaca)
[3] = molecular target: F6-Fc (anti-Pfs48/45 nanobody F6 fused to hinge and Fc of human IgG1) (alpaca)
[4] = molecular target: G3-Fc (anti-Pfs48/45 nanobody G3 fused to hinge and Fc of human IgG1) (alpaca)
[5] = molecular target: H4-Fc (anti-Pfs48/45 nanobody H4 fused to hinge and Fc of human IgG1) (alpaca)
[6] = molecular target: A4-Fc (anti-Pfs48/45 nanobody A4 fused to hinge and Fc of human IgG1) (alpaca)
[7] = molecular target: B2-Fc (anti-Pfs48/45 nanobody B2 fused to hinge and Fc of human IgG1) (alpaca)
[8] = molecular target: C1-Fc (anti-Pfs48/45 nanobody C1 fused to hinge and Fc of human IgG1) (alpaca)
[9] = molecular target: C3-Fc (anti-Pfs48/45 nanobody C3 fused to hinge and Fc of human IgG1) (alpaca)
[10] = molecular target: C7-Fc (anti-Pfs48/45 nanobody C7 fused to hinge and Fc of human IgG1) (alpaca)

Measured: binding result

B1: Full-length Pfs48/45 from P. falciparum NF54 iGP2 stage V gametocytes (natural protein)
chain: NNDFCKPSSLNSEISGFIGYKCNFSNEGVHNLKPDMRERRSIFCTIHSYFIYDKIRLIIPKKSSSPEFKILPEKCFQKVYTDYENRVETDISELGLIEYEIEENDTNPNYNERTITISPFSPKDIEFFCFCDNTEKVISSIEGRSAMVHVRVLKYPHNILFTNLTNDLFTYLPKTYNESNFVSNVLEVELNDGELFVLACELINKKCFQEGKEKALYKSNKIIYHKNLTIFKAPFYVTSKDVNTECTCKFKNNNYKIVLKPKYEKKVIHGCNFSSNVSSKHTFTDSLDISLVDDSAHISCNVHLSEPKYNHLVGLNCPGDIIPDCFFQVYQPESEELEPSNIVYLDSQINIGDIEYYEDAEGDDKIKLFGIVGSIPKTTSFTCICKKDKKSAYMTVTID
binds: [1] | [2] | [3] | [4] | [5] | [6] | [7] | [8] | [9] | [10]

— publication PMC12858062 (PLOS Pathogens, 2026)
